Assay results from the supplement of paper PMC10126150.
± gives the standard deviation of the averaged measurements.

Each sequence was assayed on ATP (assay: switch fluorescence ratio, 500 uM ATP over buffer (Cy3 cluster intensity, sum of 5 cycles each) (fold (ratio)); higher = stronger signal-on switching upon ATP binding; sequences stand for … in TCGTCGGCAGCGTCAGATGTGTATAAGAGACAGTTTTTTTTTTTTTTTTTTTTTTTTT…TC). Details: aptamer strand: ATP DNA aptamer (quencher-CACCTGGGGGAGTATTGCGGAGGAAGG + anchor), 100 nM annealed; ATP concentration: 500 uM.
Summary of the method: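 Between each of five buffer/ATP cycles, the flow-cell was stripped with NaOH and re-annealed. Each cycle imaged Cy3-labelled switching-strand clusters, annealed to 100 nM quencher-labelled ATP aptamer on a modified Illumina MiSeq flow-cell, first in selection buffer and then after 15 min with 500 uM ATP at 22 °C. The fluorescence ratio is summed target-cycle over summed buffer-cycle Cy3 intensity per cluster, averaged per switch-domain sequence, with clusters outside 100-1000 RFU excluded.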
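Also: ATP exposure 15 min at 22 °C before imaging.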

| Sequence | switch fluorescence ratio |
| --- | --- |
| GCCATGTTGG | 1.004 ± 0.0033 |
| GCCATTAAAC | 0.972 ± 0.03 |
| GCCATTAGAC | 1.04 ± 0.049 |
| GCCATTAGGA | 1.015 ± 0.0049 |
| GCCCAAAAGA | 1.02 ± 0.02 |
| GCCCACCGAT | 1.06 ± 0.031 |
| GCCCACGGGA | 1.07 ± 0.039 |
| GCCCAGTCAT | 0.997 ± 0.023 |
| GCCCAGTCCT | 1.03 ± 0.02 |
| GCCCGGGGTA | 1.09 ± 0.12 |
| GCCCGTCTGA | 0.985 ± 0.075 |
| GCCCGTTACG | 1.02 ± 0.055 |
| GCCCGTTTTT | 1 ± 0.029 |
| GCCCTGCAAT | 1.17 ± 0.056 |
| GCCCTTGGTT | 1.02 ± 0.074 |
| GCCCTTGTTT | 1.03 ± 0.046 |
| GCCGAAAATA | 0.988 ± 0.012 |
| GCCGAGGGGA | 1.05 ± 0.025 |
| GCCGAGGTGA | 1.09 ± 0.13 |
| GCCGATAGGT | 1.08 ± 0.12 |
| GCCGATGCGG | 0.988 ± 0.013 |
| GCCGCAGGGA | 2.3 ± 1.9 |
| GCCGCATTGA | 2.01 ± 0.11 |
| GCCGCCGGGG | 0.996 ± 0.032 |
| GCCGCTAAGG | 0.9968 ± 0.0035 |

| Sequence | switch fluorescence ratio |
| --- | --- |
| GCCGGGAAAC | 1.043 ± 0.0036 |
| GCCGGGAGTC | 1 ± 0.02 |
| GCCGGGGAGT | 0.989 ± 0.027 |
| GCCGGGGCAA | 1.33 ± 0.024 |
| GCCGGGGCCT | 1.03 ± 0.042 |
| GCCGGGGGCG | 0.982 ± 0.051 |
| GCCGGGGGGA | 1.03 ± 0.086 |
| GCCGGGTTGC | 1.01 ± 0.013 |
| GCCGGTACAA | 1.01 ± 0.073 |
| GCCGGTCGGG | 0.985 ± 0.013 |
| GCCGGTTTTC | 1.03 ± 0.044 |
| GCCGTGTATG | 1.06 ± 0.14 |
| GCCGTTGTGC | 0.984 ± 0.069 |
| GCCTATTTTG | 0.962 ± 0.07 |
| GCCTCTTAAG | 1 ± 0.032 |
| GCCTGAAAAA | 0.986 ± 0.033 |
| GCCTGCATTT | 1.02 ± 0.021 |
| GCCTGCGGGA | 1.1 ± 0.13 |
| GCCTGTGGGA | 1.01 ± 0.035 |
| GCCTTACATT | 1.01 ± 0.039 |
| GCCTTCAATA | 1.0946 ± 0.00028 |
| GCCTTCGAGG | 1.03 ± 0.012 |
| GCCTTCGGAA | 3.13 ± 0.065 |
| GCCTTGATCT | 0.996 ± 0.016 |
| GCCTTTAGCT | 0.943 ± 0.011 |

| Sequence | switch fluorescence ratio |
| --- | --- |
| GCGAAAGTTG | 1.014 ± 0.0032 |
| GCGAAATGTG | 1.03 ± 0.013 |
| GCGAAGGCTT | 1.017 ± 0.0095 |
| GCGAAGGGGG | 1.03 ± 0.067 |
| GCGACATCGT | 1.027 ± 0.0091 |
| GCGACCGTGT | 0.9908 ± 0.0014 |
| GCGACGAGGG | 1.033 ± 0.0017 |
| GCGACGGGAA | 1.34 ± 0.09 |
| GCGACGGGT | 1.02 ± 0.06 |
| GCGACTGCGG | 0.982 ± 0.021 |
| GCGAGAGGGA | 1.01 ± 0.013 |
| GCGAGATGCG | 0.972 ± 0.032 |
| GCGAGGAATC | 1.0365 ± 0.00015 |
| GCGAGGGATT | 1.02 ± 0.032 |
| GCGAGGGGGG | 1.02 ± 0.034 |
| GCGAGTATGC | 1.03 ± 0.02 |
| GCGAGTGTCC | 0.99 ± 0.019 |
| GCGAGTGTGT | 0.984 ± 0.029 |
| GCGAGTTATG | 1.03 ± 0.031 |
| GCGATATAGT | 1.03 ± 0.074 |
| GCGATATATG | 0.9775 ± 0.0032 |
| GCGATCAGGT | 1.02 ± 0.017 |
| GCGATCCAAA | 1 ± 0.037 |
| GCGATCCTGT | 1.02 ± 0.015 |
| GCGATGCCTG | 0.973 ± 0.071 |

| Sequence | switch fluorescence ratio |
| --- | --- |
| GCGATGGATA | 0.96 ± 0.056 |
| GCGATGTGAC | 1.22 ± 0.059 |
| GCGATGTGGT | 1.01 ± 0.012 |
| GCGATTGAGG | 0.9891 ± 0.005 |
| GCGATTGGGT | 1.01 ± 0.043 |
| GCGCAGTCGG | 1.034 ± 0.0048 |
| GCGCATTGGT | 1.06 ± 0.068 |
| GCGCGCCGGG | 1.01 ± 0.027 |
| GCGCGCTAAG | 0.977 ± 0.035 |
| GCGCTAAGTT | 0.984 ± 0.015 |
| GCGCTACTAG | 1.02 ± 0.021 |
| GCGCTAGGCT | 1.01 ± 0.08 |
| GCGCTATCTT | 1.06 ± 0.041 |
| GCGCTCGTCG | 1.07 ± 0.012 |
| GCGCTGACGT | 0.9932 ± 0.0052 |
| GCGCTTAGGT | 0.983 ± 0.077 |
| GCGCTTGAAT | 0.982 ± 0.018 |
| GCGCTTTTGG | 0.986 ± 0.048 |
| GCGGAAGACG | 1.35 ± 0.6 |
| GCGGACACGC | 1.02 ± 0.014 |
| GCGGAGCGTA | 1.06 ± 0.13 |
| GCGGAGTATT | 1.02 ± 0.012 |
| GCGGATGGTG | 1.07 ± 0.08 |
| GCGGATGTCT | 1 ± 0.017 |
| GCGGCATAAT | 1.02 ± 0.026 |
